Assay results taken from patent publication US20240067944A1 (published 2024).
No end group written: not given here.

What was measured:
Experiment in all cases: ELISA, biotinylated 12-mer peptide on streptavidin, 2 ug/mL FLAG-tagged VHH, anti-FLAG-HRP
[1] = biological target: T1, SSGEAPDSITWK (human)
T1 peptide: SSGEAPDSITWK-biotin
Protocol: (§1) To determine whether the binding epitope of the anti-FX VHH polypeptide designated “cmpd #1” are located inside the activation peptide (AP) of human FX (SEQ ID NO:2), an ELISA assay was setup. 41 unique 12-mer peptide fragments spanning the 52 residues of the activation peptide with one amino acid spacing were immobilized in microtiter plate wells followed by incubation with the VHH polypeptide to be tested, and detection of bound ligand was performed by addition of a secondary HRP-labelled antibody.
(§2) The peptides were C-terminally conjugated to biotin and 50 μL of 1 μg/mL peptide solution was used for immobilization in discrete wells of the microtiter plate which was pre-coated with 1 μg/mL streptavidin. Each well was washed with washing buffer (10 mM Tris, 150 mM NaCl, 2.5 mM CaCl₂), 0.05% Tween 20, pH 8.60) followed by addition of 50 μL of 2 μg/mL FLAG-tagged anti-FX VHH polypeptide or IgG antibody to be tested. After 1 hour non-bound VHH polypeptide was washed off using washing buffer.
(§3) Bound anti-FX activation peptide ligand was detected by first binding a HRP-labelled secondary antibody (for FLAG-tagged VHH polypeptide: Anti-FLAG mAb M2-Peroxidase (HRP) (Sigma Aldrich, US) for 1 hour, and then adding 100 μL TMB-1 ELISA substrate (Kem-En-Tec Diagnostics, Denmark).

[2] = biological target: T2, TWKPYDAADLDP (human)
T2 peptide: TWKPYDAADLDP-biotin
Protocol: as §1, §2, §3

[3] = biological target: T3, QTQPERGDNNLT (human)
T3 peptide: QTQPERGDNNLT-biotin
Protocol: as §1, §2, §3

[4] = biological target: T4, QATSSSGEAPDS (human)
T4 peptide: QATSSSGEAPDS-biotin
Protocol: as §1, §2, §3

[5] = biological target: T5, SGEAPDSITWKP (human)
T5 peptide: SGEAPDSITWKP-biotin
Protocol: as §1, §2, §3

[6] = biological target: T6, DLLDFNQTQPER (human)
T6 peptide: DLLDFNQTQPER-biotin
Protocol: as §1, §2, §3

[7] = biological target: T7, DAADLDPTENPF (human)
T7 peptide: DAADLDPTENPF-biotin
Protocol: as §1, §2, §3

[8] = biological target: T8, PTENPFDLLDFN (human)
T8 peptide: PTENPFDLLDFN-biotin
Protocol: as §1, §2, §3

[9] = biological target: T9, LDFNQTQPERGD (human)
T9 peptide: LDFNQTQPERGD-biotin
Protocol: as §1, §2, §3

[10] = biological target: T10, WKPYDAADLDPT (human)
T10 peptide: WKPYDAADLDPT-biotin
Protocol: as §1, §2, §3

[11] = biological target: T11, ATSSSGEAPDSI (human)
T11 peptide: ATSSSGEAPDSI-biotin
Protocol: as §1, §2, §3

[12] = biological target: T12, VAQATSSSGEAP (human)
T12 peptide: VAQATSSSGEAP-biotin
Protocol: as §1, §2, §3

[13] = biological target: T13, DFNQTQPERGDN (human)
T13 peptide: DFNQTQPERGDN-biotin
Protocol: as §1, §2, §3

[14] = biological target: T14, TENPFDLLDFNQ (human)
T14 peptide: TENPFDLLDFNQ-biotin
Protocol: as §1, §2, §3

[15] = biological target: T15, FDLLDFNQTQPE (human)
T15 peptide: FDLLDFNQTQPE-biotin
Protocol: as §1, §2, §3

[16] = biological target: T16, PFDLLDFNQTQP (human)
T16 peptide: PFDLLDFNQTQP-biotin
Protocol: as §1, §2, §3

[17] = biological target: T17, DSITWKPYDAAD (human)
T17 peptide: DSITWKPYDAAD-biotin
Protocol: as §1, §2, §3

[18] = biological target: T18, … (human)
T18 sequence (peptide, C-terminally conjugated to biotin): LLDFNQTQPERG

B1: Cmpd #1 (monovalent anti-FX VHH polypeptide, VHH-1.1) (VHH)
VHH: EVQLVESGGGLVQPGGSLRLSCAASGSIGAFDAMGWYRQAPGKQRELVAGIMVSRGNTNYTDSVKGRFTISRDNAKNTVYLQMNSLKPEDTAVYYCKAVKRPGPGYLEVWGQGTLVTVSS
notes: No protractor
B1 was tested. Which “ELISA signal normalized relative to the background signal” value [1] did it give?
Its value is 0.88 relative to background.

What about the “ELISA signal normalized relative to the background signal” value [2] of the same binder?
The value was 1.13 relative to background.

What about the “ELISA signal normalized relative to the background signal” value [3] of the same binder?
Its value is 0.88 relative to background.

And the “ELISA signal normalized relative to the background signal” value [4]?
The value was 0.96 relative to background.

What about the “ELISA signal normalized relative to the background signal” value [5] of the same binder?
The value was 0.88 relative to background.

What about the “ELISA signal normalized relative to the background signal” value [6] of the same binder?
Its value is 3.08 relative to background.

What about the “ELISA signal normalized relative to the background signal” value [7] of the same binder?
The value was 0.88 relative to background.

And the “ELISA signal normalized relative to the background signal” value [8]?
Its value is 4.58 relative to background.

And the “ELISA signal normalized relative to the background signal” value [9]?
The value was 0.97 relative to background.

What about the “ELISA signal normalized relative to the background signal” value [10] of the same binder?
Its value is 0.89 relative to background.

What about the “ELISA signal normalized relative to the background signal” value [11] of the same binder?
Its value is 0.98 relative to background.

What about the “ELISA signal normalized relative to the background signal” value [12] of the same binder?
The value was 1.02 relative to background.

What about the “ELISA signal normalized relative to the background signal” value [13] of the same binder?
The value was 0.94 relative to background.

What about the “ELISA signal normalized relative to the background signal” value [14] of the same binder?
The value was 4.84 relative to background.

What about the “ELISA signal normalized relative to the background signal” value [15] of the same binder?
The value was 4.38 relative to background.

And the “ELISA signal normalized relative to the background signal” value [16]?
The value was 4.95 relative to background.

What about the “ELISA signal normalized relative to the background signal” value [17] of the same binder?
Its value is 1.08 relative to background.

And the ELISA signal normalized relative to the background signal (relative to background) [18]?
Its ELISA signal normalized relative to the background signal (relative to background) is 1.88.
